Reference: paper PMC4700190
One block for each substance: values may come before it.

Key:
[1] = target: CynD E235C (Bacillus pumilus); assay: SEC; Superdex 200 10/300 GL, 0.1 M MOPS pH 7.7, 0.5 ml/min; His-tag purified protein; column calibrated with a marker kit, and with wild-type B. pumilus CynD (18-mer) and P. stutzeri CynD (14-mer)
[2] = target: CynD F234C (Bacillus pumilus); assay: as above
[3] = target: CynD P63C (Bacillus pumilus); assay: as above
[4] = target: CynD R231C (Bacillus pumilus); assay: as above
[5] = target: CynD A58C (Bacillus pumilus); assay: as above
[6] = target: CynD D232C (Bacillus pumilus); assay: as above
[7] = target: CynD H71C (Bacillus pumilus); assay: as above
[8] = target: CynD Y65C (Bacillus pumilus); assay: as above
[9] = target: CynD K68C (Bacillus pumilus); assay: as above
[10] = target: CynD I60C (Bacillus pumilus); assay: as above
[11] = target: CynD Y233C (Bacillus pumilus); assay: as above
[12] = target: CynD T227C (Bacillus pumilus); assay: as above
[13] = target: CynD I224C (Bacillus pumilus); assay: as above
[14] = target: CynD F59C (Bacillus pumilus); assay: as above
[15] = target: CynD Q230C (Bacillus pumilus); assay: as above
[16] = target: cyanide dihydratase from Bacillus pumilus (CynD), wild type (Bacillus pumilus); assay: as above
[17] = target: CynD F57C (Bacillus pumilus); assay: as above
[18] = target: CynD P55C (Bacillus pumilus); assay: as above
[19] = target: CynD from Pseudomonas stutzeri (Pseudomonas stutzeri); assay: as above
[20] = target: CynD E64C (Bacillus pumilus); assay: as above
[21] = target: CynD C225A (Bacillus pumilus); assay: as above
[22] = target: CynD H62C (Bacillus pumilus); assay: as above
[23] = target: CynD E72C (Bacillus pumilus); assay: as above
[24] = target: CynD W56C (Bacillus pumilus); assay: as above
[25] = target: CynD Y70C (Bacillus pumilus); assay: as above
[26] = target: CynD F69C (Bacillus pumilus); assay: as above
[27] = target: CynD L226C (Bacillus pumilus); assay: as above
[28] = target: CynD E229C (Bacillus pumilus); assay: as above
[29] = target: CynD R67C (Bacillus pumilus)
[30] = target: CynD G61C (Bacillus pumilus); assay: SEC; Superdex 200 10/300 GL, 0.1 M MOPS pH 7.7, 0.5 ml/min; His-tag purified protein; column calibrated with a marker kit, and with wild-type B. pumilus CynD (18-mer) and P. stutzeri CynD (14-mer)
[31] = target: CynD M223C (Bacillus pumilus); assay: as above
[32] = target: CynD E222C (Bacillus pumilus); assay: as above
[33] = target: CynD T66C (Bacillus pumilus); assay: as above

stoichiometry N [1]: 18 subunits
Substance: CynD E235C (enzyme)

stoichiometry N [2]: 16 subunits
Substance: CynD F234C (enzyme)

stoichiometry N [3]: 18 subunits
Substance: CynD P63C (enzyme)

stoichiometry N [4]: 18 subunits
Substance: CynD R231C (enzyme)

stoichiometry N [5]: 18 subunits
Substance: CynD A58C (enzyme)

stoichiometry N [6]: 18 subunits
Substance: CynD D232C (enzyme)

stoichiometry N [7]: 16 subunits
Substance: CynD H71C (enzyme)

stoichiometry N [8]: 18 subunits
Substance: CynD Y65C (enzyme)

stoichiometry N [9]: 18 subunits
Substance: CynD K68C (enzyme)

stoichiometry N [10]: 18 subunits
Substance: CynD I60C (enzyme)

stoichiometry N [11]: 16 subunits
Substance: CynD Y233C (enzyme)

stoichiometry N [12]: 18 subunits
Substance: CynD T227C (enzyme)

stoichiometry N [13]: 18 subunits
Substance: CynD I224C (enzyme)

stoichiometry N [14]: 18 subunits
Substance: CynD F59C (enzyme)

stoichiometry N [15]: 18 subunits
Substance: CynD Q230C (enzyme)

stoichiometry N [16]: 18 subunits
Substance: cyanide dihydratase from Bacillus pumilus (CynD), wild type (enzyme)

stoichiometry N [17]: 14 subunits
Substance: CynD F57C (enzyme)

stoichiometry N [18]: 18 subunits
Substance: CynD P55C (enzyme)

stoichiometry N [19]: 14 subunits
Substance: CynD from Pseudomonas stutzeri (enzyme)

stoichiometry N [20]: 16 subunits
Substance: CynD E64C (enzyme)

stoichiometry N [21]: 18 subunits
Substance: CynD C225A (enzyme)

stoichiometry N [22]: 18 subunits
Substance: CynD H62C (enzyme)

stoichiometry N [23]: 18 subunits
Substance: CynD E72C (enzyme)

stoichiometry N [24]: 16 subunits
Substance: CynD W56C (enzyme)

stoichiometry N [25]: 16 subunits
Substance: CynD Y70C (enzyme)

stoichiometry N [26]: 16 subunits
Substance: CynD F69C (enzyme)

stoichiometry N [27]: 18 subunits
Substance: CynD L226C (enzyme)

stoichiometry N [28]: 18 subunits
Substance: CynD E229C (enzyme)

activity of the purified protein relative to wild type, picric acid cyanide assay [29]: < 10%
Substance: CynD R67C (enzyme)

stoichiometry N [30]: 14 subunits
Substance: CynD G61C (enzyme)

stoichiometry N [31]: 18 subunits
Substance: CynD M223C (enzyme)

stoichiometry N [32]: 18 subunits
Substance: CynD E222C (enzyme)

stoichiometry N [33]: 16 subunits
Substance: CynD T66C (enzyme)
